Patent US20250270301A1 (GEN2 NEUROSCIENCE, published 2025)

What was measured:
[1] = target: T1, full length recombinant human 2N4R tau (human, UniProt P10636 1-758); assay: SPR SCK, IgG on Protein A, tau in flow
T1 construct: bought from rPeptide; pHrodo Red maleimide-labelled where it stands in uptake assays; also called tau1-441; full length tau

[2] = target: T2, Bovine serum albumin (bovine, UniProt P02769 25-607); assay: ELISA on 1% BSA, HEK supernatant, anti-human IgG-HRP, n=1
T2 construct: also called BSA
T2 sequence (P02769 25-607 limits assumed): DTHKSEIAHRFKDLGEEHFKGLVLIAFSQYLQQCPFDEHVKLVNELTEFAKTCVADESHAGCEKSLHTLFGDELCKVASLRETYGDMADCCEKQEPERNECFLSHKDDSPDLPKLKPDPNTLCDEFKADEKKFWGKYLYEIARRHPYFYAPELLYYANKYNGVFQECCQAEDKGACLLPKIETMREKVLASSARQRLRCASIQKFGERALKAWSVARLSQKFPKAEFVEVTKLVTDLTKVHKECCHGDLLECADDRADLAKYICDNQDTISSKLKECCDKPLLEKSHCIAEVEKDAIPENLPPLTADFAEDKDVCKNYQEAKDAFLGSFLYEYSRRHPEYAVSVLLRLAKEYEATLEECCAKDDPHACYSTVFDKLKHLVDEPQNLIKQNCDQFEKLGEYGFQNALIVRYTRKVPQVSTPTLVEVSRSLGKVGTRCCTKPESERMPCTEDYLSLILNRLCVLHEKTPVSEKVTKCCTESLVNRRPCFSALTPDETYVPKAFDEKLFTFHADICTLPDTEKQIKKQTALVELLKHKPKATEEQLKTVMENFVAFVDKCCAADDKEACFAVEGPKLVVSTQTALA

T1 sequence (P10636 other isoform, or with tags, fused parts or gaps limits assumed): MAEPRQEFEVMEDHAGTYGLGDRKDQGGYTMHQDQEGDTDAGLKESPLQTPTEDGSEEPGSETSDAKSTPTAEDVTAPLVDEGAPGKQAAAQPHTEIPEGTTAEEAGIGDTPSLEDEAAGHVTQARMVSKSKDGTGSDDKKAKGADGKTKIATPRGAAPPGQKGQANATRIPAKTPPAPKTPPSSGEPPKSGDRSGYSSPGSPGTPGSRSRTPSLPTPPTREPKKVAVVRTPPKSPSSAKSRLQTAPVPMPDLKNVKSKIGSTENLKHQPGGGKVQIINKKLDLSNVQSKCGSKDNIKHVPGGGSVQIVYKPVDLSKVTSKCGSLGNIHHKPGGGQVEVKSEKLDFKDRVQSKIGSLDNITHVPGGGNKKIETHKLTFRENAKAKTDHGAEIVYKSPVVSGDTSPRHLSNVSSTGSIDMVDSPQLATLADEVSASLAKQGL

Fold change (KD, to pVH/pVL) [1] | Kd [1] | koff [1] | kon [1] | Binder | binding result [2]
0.9 | 7.35 nM | – | – | #44_VH4VK4_H07/pVL (antibody, V domains shown, also called Clone VH4_H07; #44_VH4_H07) VH: QVQLQESGPGLVKPSETLSLTCTVSGIDLSSYAMAWVRQAPGKGLEWIGAIDAAGNTFYASWVKGRFTISKDTSKTTVDLQMTSLTAEDTATYFCARDSGAFDPWGQGTLVTVSS VL: DIQMTQSPSSLSASVGDRVTITCQASQSVYDNYLAWYQQKPGQPPKLLIHAASNLASGVPSRFSGSGSGTEFTLTISSLQPDDFATYYCLGEFSCTTTDCNVFGGGTKVEIK | no binding (tested: 30 ng/ml (legend 1:100))
0.66 | 9.95 nM | – | – | #44_VH4VK4_H10/pVL (antibody, V domains shown, also called Clone VH4_H10; #44_VH4_H10) VH: QVQLQESGPGLVKPSETLSLTCTVSGIDLSSYAMAWVRQAPGKGLEWIGAIDARGRTFYASWVKGRFTISKDTSKTTVDLQMTSLTAEDTATYFCARDSGAFDPWGQGTLVTVSS VL: DIQMTQSPSSLSASVGDRVTITCQASQSVYDNYLAWYQQKPGQPPKLLIHAASNLASGVPSRFSGSGSGTEFTLTISSLQPDDFATYYCLGEFSCTTTDCNVFGGGTKVEIK | no binding (tested: 30 ng/ml (legend 1:100))
0.68 | 9.72 nM | 0.0122 s⁻¹ | 1.26e+06 M⁻¹ s⁻¹ | #44_VH4VK4_H19/pVL (antibody, V domains shown, also called Clone VH4_H19; #44_VH4_H19) VH: QVQLQESGPGLVKPSETLSLTCTVSGIDLSSYAMAWVRQAPGKGLEWIGAIDSRGATFYASWVKGRFTISKDTSKTTVDLQMTSLTAEDTATYFCARDSGAFDPWGQGTLVTVSS VL: DIQMTQSPSSLSASVGDRVTITCQASQSVYDNYLAWYQQKPGQPPKLLIHAASNLASGVPSRFSGSGSGTEFTLTISSLQPDDFATYYCLGEFSCTTTDCNVFGGGTKVEIK | no binding (tested: 30 ng/ml (legend 1:100))
1.03 | 6.37 nM | – | – | #44_VH4VK4_H14/pVL (antibody, V domains shown, also called Clone VH4_H14; #44_VH4_H14) VH: QVQLQESGPGLVKPSETLSLTCTVSGIDLSSYAMAWVRQAPGKGLEWIGAIDSAGSTFYASWVKGRSTISKDTSKTTVDLQMTSLTAEDTATYFCARDSGAFDPWGQGTLVTVSS VL: DIQMTQSPSSLSASVGDRVTITCQASQSVYDNYLAWYQQKPGQPPKLLIHAASNLASGVPSRFSGSGSGTEFTLTISSLQPDDFATYYCLGEFSCTTTDCNVFGGGTKVEIK | no binding (tested: 30 ng/ml (legend 1:100))
0.19 | 34.2 nM | 0.00983 s⁻¹ | 287000 M⁻¹ s⁻¹ | #44_VH4VK4_H18/pVL (antibody, V domains shown, also called Clone VH4_H18; #44_VH4_H18) VH: QVQLQESGPGLVKPSETLSLTCTVSGIDLSSYAMAWVRQAPGKGLEWIGAIDAGGNTFYASWVKGRFTISKDTSKTTVDLQMTSLTAEDTATYFCARDSGAFDPWGQGTLVTVSS VL: DIQMTQSPSSLSASVGDRVTITCQASQSVYDNYLAWYQQKPGQPPKLLIHAASNLASGVPSRFSGSGSGTEFTLTISSLQPDDFATYYCLGEFSCTTTDCNVFGGGTKVEIK | no binding (tested: 30 ng/ml (legend 1:100))
1.03 | 6.36 nM | 0.306 s⁻¹ | 4.81e+07 M⁻¹ s⁻¹ | #44_VH4VK4_H17/pVL (antibody, V domains shown, also called Clone VH4_H17; #44_VH4_H17) VH: QVQLQESGPGLVKPSETLSLTCTVSGIDLSSYAMAWVRQAPGKGLEWIGAIDRVGNTFYASWVKGRFTISKDTSKTTVDLQMTSLTAEDTATYFCARDSGAFDPWGQGTLVTVSS VL: DIQMTQSPSSLSASVGDRVTITCQASQSVYDNYLAWYQQKPGQPPKLLIHAASNLASGVPSRFSGSGSGTEFTLTISSLQPDDFATYYCLGEFSCTTTDCNVFGGGTKVEIK | no binding (tested: 30 ng/ml (legend 1:100))
0.69 | 9.51 nM | – | – | #44_VH4VK4_H16/pVL (antibody, V domains shown, also called Clone VH4_H16; #44_VH4_H16) VH: QVQLQESGPGLVKPSETLSLTCTVSGIDLSSYAMAWVRQAPGKGLEWIGAIDRAGNTFYASWVKGRFTISKDTSKTTVDLQMTSLTAEDTATYFCARDSGAFDPWGQGTLVTVSS VL: DIQMTQSPSSLSASVGDRVTITCQASQSVYDNYLAWYQQKPGQPPKLLIHAASNLASGVPSRFSGSGSGTEFTLTISSLQPDDFATYYCLGEFSCTTTDCNVFGGGTKVEIK | no binding (tested: 30 ng/ml (legend 1:100))
0.67 | 9.85 nM | 0.032 s⁻¹ | 3.25e+06 M⁻¹ s⁻¹ | #44_VH4VK4_H09/pVL (antibody, V domains shown, also called Clone VH4_H09; #44_VH4_H09) VH: QVQLQESGPGLVKPSETLSLTCTVSGIDLSSYAMAWVRQAPGKGLEWIGAIDARGNTFYASWVKGRFTISKDTSKTTVDLQMTSLTAEDTATYFCARDSGAFDPWGQGTLVTVSS VL: DIQMTQSPSSLSASVGDRVTITCQASQSVYDNYLAWYQQKPGQPPKLLIHAASNLASGVPSRFSGSGSGTEFTLTISSLQPDDFATYYCLGEFSCTTTDCNVFGGGTKVEIK | no binding (tested: 30 ng/ml (legend 1:100))
0.75 | 8.78 nM | 0.0404 s⁻¹ | 4.6e+06 M⁻¹ s⁻¹ | #44_VH4VK4_H20/pVL (antibody, V domains shown, also called Clone VH4_H20; #44_VH4_H20) VH: QVQLQESGPGLVKPSETLSLTCTVSGIDLSSYAMAWVRQAPGKGLEWIGAIDSRGSTFYASWVKGRFTISKDTSKTTVDLQMTSLTAEDTATYFCARDSGAFDPWGQGTLVTVSS VL: DIQMTQSPSSLSASVGDRVTITCQASQSVYDNYLAWYQQKPGQPPKLLIHAASNLASGVPSRFSGSGSGTEFTLTISSLQPDDFATYYCLGEFSCTTTDCNVFGGGTKVEIK | no binding (tested: 30 ng/ml (legend 1:100))
0.89 | 7.38 nM | – | – | #44_VH4VK4 pVH/L2 (antibody, V domains shown, also called Clone VK4_L2; #44_VK4_L2) VH: QVQLQESGPGLVKPSETLSLTCTVSGIDLSSYAMAWVRQAPGKGLEWIGCIDRRGGTFYASWVKGRFTISKDTSKTTVDLQMTSLTAEDTATYFCARDSGAFDPWGQGTLVTVSS VL: DIQMTQSPSSLSASVGDRVTITCQASQSVYDNYLAWYQQKPGQPPKLLIHAASNLASGVPSRFSGSGSGTEFTLTISSLQPDDFATYYCLGEFSCQDTDCNVFGGGTKVEIKR | no binding (tested: 30 ng/ml (legend 1:100))
1.09 | 6.04 nM | 0.251 s⁻¹ | 4.16e+07 M⁻¹ s⁻¹ | #44_VH4VK4_H12/pVL (antibody, V domains shown, also called Clone VH4_H12; #44_VH4_H12) VH: QVQLQESGPGLVKPSETLSLTCTVSGIDLSSYAMAWVRQAPGKGLEWIGAIDARGSTFYASWVKGRFTISKDTSKTTVDLQMTSLTAEDTATYFCARDSGAFDPWGQGTLVTVSS VL: DIQMTQSPSSLSASVGDRVTITCQASQSVYDNYLAWYQQKPGQPPKLLIHAASNLASGVPSRFSGSGSGTEFTLTISSLQPDDFATYYCLGEFSCTTTDCNVFGGGTKVEIK | no binding (tested: 30 ng/ml (legend 1:100))
0.26 | 25.7 nM | 0.011 s⁻¹ | 426000 M⁻¹ s⁻¹ | #44_VH4VK4_H08/pVL (antibody, V domains shown, also called Clone VH4_H08; #44_VH4_H08) VH: QVQLQESGPGLVKPSETLSLTCTVSGIDLSSYAMAWVRQAPGKGLEWIGAIDAAGRTFYASWVKGRFTISKDTSKTTVDLQMTSLTAEDTATYFCARDSGAFDPWGQGTLVTVSS VL: DIQMTQSPSSLSASVGDRVTITCQASQSVYDNYLAWYQQKPGQPPKLLIHAASNLASGVPSRFSGSGSGTEFTLTISSLQPDDFATYYCLGEFSCTTTDCNVFGGGTKVEIK | no binding (tested: 30 ng/ml (legend 1:100))
0.75 | 8.76 nM | 0.0361 s⁻¹ | 4.12e+06 M⁻¹ s⁻¹ | #44_VH4VK4_H15/pVL (antibody, V domains shown, also called Clone VH4_H15; #44_VH4_H15) VH: QVQLQESGPGLVKPSETLSLTCTVSGIDLSSYAMAWVRQAPGKGLEWIGAIDSVGNTFYASWVKGRFTISKDTSKTTVDLQMTSLTAEDTATYFCARDSGAFDPWGQGTLVTVSS VL: DIQMTQSPSSLSASVGDRVTITCQASQSVYDNYLAWYQQKPGQPPKLLIHAASNLASGVPSRFSGSGSGTEFTLTISSLQPDDFATYYCLGEFSCTTTDCNVFGGGTKVEIK | no binding (tested: 30 ng/ml (legend 1:100))
1.16 | 5.65 nM | – | – | #44_VH4VK4_H11/pVL (antibody, V domains shown, also called Clone VH4_H11; #44_VH4_H11) VH: QVQLQESGPGLVKPSETLSLTCTVSGIDLSSYAMAWVRQAPGKGLEWIGAIDARGATFYASWVKGRFTISKDTSKTTVDLQMTSLTAEDTATYFCARDSGAFDPWGQGTLVTVSS VL: DIQMTQSPSSLSASVGDRVTITCQASQSVYDNYLAWYQQKPGQPPKLLIHAASNLASGVPSRFSGSGSGTEFTLTISSLQPDDFATYYCLGEFSCTTTDCNVFGGGTKVEIK | no binding (tested: 30 ng/ml (legend 1:100))
0.38 | 17.3 nM | 0.0148 s⁻¹ | 855000 M⁻¹ s⁻¹ | #44_VH4VK4_H13/pVL (antibody, V domains shown, also called Clone VH4_H13; #44_VH4_H13) VH: QVQLQESGPGLVKPSETLSLTCTVSGIDLSSYAMAWVRQAPGKGLEWIGAIDSAGNTFYASWVKGRFTISKDTSKTTVDLQMTSLTAEDTATYFCARDSGAFDPWGQGTLVTVSS VL: DIQMTQSPSSLSASVGDRVTITCQASQSVYDNYLAWYQQKPGQPPKLLIHAASNLASGVPSRFSGSGSGTEFTLTISSLQPDDFATYYCLGEFSCTTTDCNVFGGGTKVEIK | no binding (tested: 30 ng/ml (legend 1:100))
